Results taken from US20130309233A1 (SORRENTO THERAPEUTICS, published 2013).

target: T1, EGFR expressed on the surface of cells (A431, A549, MCF7 and other EGFR-expressing cell lines) (human, UniProt P00533 25-1210); experiment: cell-based or functional assay

Row | decrease in EGF stimulated receptor phosphorylation assay in EGFR positive cells (A431) | Binder
1 | ~10% | A5 (antibody, IgG1, V domains shown) VH: EVQLVQSGAEVKKPGASVKVSCKASGGTFSSYAISWVRQAPGQGLEWMGGIIPILGTADYAQKFQGRVTITADESTSTAYMELSSLRSEDTAVYYCARDEIPLEYCTSTSCYHAFDIWGQGTMVTVSS VL: not shown
2 | ~10% | B5 (antibody, IgG1, V domains shown) VH: QMQLVQSWAEVKKPGASVKVSCKASAYTFTNYYIHWVRQAPGQGLEWMGIINPSSGATTYAQRLQGRVIMTRDTSTSTVNMELSSLRSEDTAVYYCARSTLWFSEFDYWGQGTLVTVSS VL: QSVLTQPASVSGSPGQSITISCTGTTSDVGGFNYVSWYQQHPGKVPKLIIFDVSNRPSSVSDRFSGSKSVNTASLTISGLQAEDEADYYCSSYTDSGSYIFGTGTKVTVL

target: T1, EGFR expressed on the surface of cells …; experiment: cell-based or functional assay; remark: another data set of the same source

Row | IC50 (M), inhibition of EGF-stimulated EGFR auto-phosphorylation in A549 cells | Binder
3 | 5.1e-10 M | A6-A1 (antibody, V domains shown) VH: QVQLVQSGAEVKKPGSSVKVSCKASGGTFRNHAWSWVRQAPGQGLEWMGWISAYNGYTHYASKLQGRVTMTTDTSTSTAYMELRSLRSDDTAVYYCARVSAEYAEDWSLHYYYMDVWGQGTLVTVSS VL: QSVLTQPPSVSAAPGQEVTISCSGSNSNIGNNYVSWYQQLPGTAPKLLIYDNNERPSGIPDRFSGSKSGTSATLGITGLQTGDEADYYCSTWDSSLSAVVFGGGTKLTVL
4 | 1.1e-09 M | A6-A3 (antibody, V domains shown) VH: QVQLVQSGAEVKKPGSSVKVSCKASGGTFRNHAWSWVRQAPGQGLEWMGWISAYNGYTTYASKLQGRVTMTTDTSTSTAYMELRSLRSDDTAVYYCARVSASYNEDWSLHYYYGMDVWGQGTLVTVSS VL: QSVLTQPPSVSAAPGQEVTISCSGSNSNIEPNYVSWYQQLPGTAPKLLIYSTAERPSGIPDRFSGSKSGTSATLGITGLQTGDEADYYCSTWDSSLSAVVFGGGTKLTVL
5 | 1.1e-09 M | A6-A5 (antibody, V domains shown) VH: QVQLVQSGAEVKKPGSSVKVSCKASGGTFRNHAYSWVRQAPGQGLEWMGWISAYNGYTHYASKLQGRVTMTTDTSTSTAYMELRSLRSDDTAVYYCARVSASYASDWSLHYYYGMDVWGQGTLVTVSS VL: QSVLTQPPSVSAAPGQEVTISCSGSNSNIGNNYVSWYQQLPGTAPKLLIYDTAERPSGIPDRFSGSKSGTSATLGITGLQTGDEADYYCSTWDSSLSAVLFGGGTKLTVL
6 | 5.6e-10 M | A6-A7 (antibody, V domains shown) VH: QVQLVQSGAEVKKPGSSVKVSCKASGGTFRNHAYSWVRQAPGQGLEWMGWISAYNGYTHYAEKLQGRVTMTTDTSTSTAYMELRSLRSDDTAVYYCARVSAEYNSDWSVHYYYGMDVWGQGTLVTVSS VL: QSVLTQPPSVSAAPGQEVTISCSGSNSNIGPNYVSWYQQLPGTAPKLLIYDNNERPSGIPDRFSGSKSGTSATLGITGLQTGDEADYYCSTFDSSLSAAVFGGGTKLTVL
7 | 1.05e-09 M | A6-A4 (antibody, V domains shown) VH: QVQLVQSGAEVKKPGSSVKVSCKASGGTFRNHAYSWVRQAPGQGLEWMGWISAYNGYTTYASKLQGRVTMTTDTSTSTAYMELRSLRSDDTAVYYCARVSASYNSDWSLHYYYGMDVWGQGTLVTVSS VL: QSVLTQPPSVSAAPGQEVTISCSGSNSNIENNYVSWYQQLPGTAPKLLIYSNNERPSGIPDRFSGSKSGTSATLGITGLQTGDEADYYCGTFDSSLSAVVFGGGTKLTVL
8 | 6e-10 M | A6-A8 (antibody, V domains shown) VH: QVQLVQSGAEVKKPGSSVKVSCKASGGTFRNHAYSWVRQAPGQGLEWMGWISAYNGYTTYAEKLQGRVTMTTDTSTSTAYMELRSLRSDDTAVYYCARVSAEYAEDWSLHYYYGMDVWGQGTLVTVSS VL: QSVLTQPPSVSAAPGQEVTISCSGSNSNIPNNYVSWYQQLPGTAPKLLIYSNSERPSGIPDRFSGSKSGTSATLGITGLQTGDEADYYCSTWDSSLSAALFGGGTKLTVL

target: T1, EGFR expressed on the surface of cells …; experiment: cell-based or functional assay; remark: another data set of the same source

Row | IC50 (M), inhibition of EGF-stimulated EGFR auto-phosphorylation in A549 cells | Binder
9 | 1.8e-10 M | D2GA2 (antibody, V domains shown) VH: EVQLVESGGGVVQPGRSLRLSCAASGFIFHHYAMHWVRQAPGKGLEWVAHISPDGSSKFYADSVKGRFTVSRDNSKNTLYLQMNSLRAEDTAVYYCARFTEVLYYGADIWGQGTLVTVSS VL: QSVLTQPPSVSEAPRQRVSISCSGSSSNIGNNAVNWYQQLPGKAPKLLIYFDDLLPSGVSDRFSGSKSGTSASLAISGLQSEDEADYYCAAWDDSLKGYVFGTGTKVTVL
10 | 2e-10 M | D2GC1 (antibody, V domains shown) VH: EVQLVESGGGVVQPGRSLRLSCAASGFIFHHYAMHWVRQAPGKGLEWVAHISPDGSSKFYADSVKGRFTVSRDNSKNTLYLQMNSLRAEDTAVYYCARFTEVLYYGADLWGQGTLVTVSS VL: QSVLTQPPSVSEAPRQRVSISCSGSSSNIGNNAVNWYQQLPGKAPKLLIYYDDLLPSGVSDRFSGSKSGTSASLAISGLQSEDEADYYCAAWDDSLKGYVFGTGTKVTVL
11 | 2.2e-10 M | D2GA6 (antibody, V domains shown) VH: EVQLVESGGGVVQPGRSLRLSCAASGFIFHHYAMHWVRQAPGKGLEWVAHISPDGSSKFYADSVKGRFTVSRDNSKNTLYLQMNSLRAEDTAVYYCARFTEVLYYGADIWGQGTLVTVSS VL: QSVLTQPPSVSEAPRQRVSISCSGSSSNIGNNAVNWYQQLPGKAPKLLIYFDDLLPQGVSDRFSGSKSGTSASLAISGLQSEDEADYYCAAWDDSLKGYVFGTGTKVTVL
12 | 2.3e-10 M | D2GA5 (antibody, V domains shown) VH: EVQLVESGGGVVQPGRSLRLSCAASGFIFHHYAMHWVRQAPGKGLEWVAHISIDGSSKFYADSVKGRFTVSRDNSKNTLYLQMNSLRAEDTAVYYCARFTEVLYYGADLWGQGTLVTVSS VL: QSVLTQPPSVSEAPRQRVSISCSGSSSNIGNNAVNWYQQLPGKAPKLLIYYDDLLPSGVSDRFSGSKSGTSASLAISGLQSEDEADYYCAAWDDSLKGYVFGTGTKVTVL
13 | 8.9e-10 M | D2GG1 (antibody, V domains shown) VH: EVQLVESGGGVVQPGRSLRLSCAASGFTFSHYAMHWVRQAPGKGLEWVAHISLDGSSKFYADSVKGRFTVSRDNSKNTLYLQMNSLRAEDTAVYYCARFTEVLYYGADLWGQGTLVTVSS VL: QSVLTQPPSVSEAPRQRVSISCSGSSSNIGNNAVNWYQQLPGKAPKLLIYYDDLLPSGVSDRFSGSKSGTSASLAISGLQSEDEADYYCAAWDDSLKGYVFGTGTKVTVL
14 | 2.8e-10 M | D2GC4 (antibody, V domains shown) VH: EVQLVESGGGVVQPGRSLRLSCAASGFIFHHYSMHWVRQAPGKGLEWVAHISSDGSSKFYADSVKGRFTVSRDNSKNTLYLQMNSLRAEDTAVYYCARFTEVLYYGADLWGQGTLVTVSS VL: QSVLTQPPSVSEAPRQRVSISCSGSSSNIGNNAVNWYQQLPGKAPKLLIYYDDLLPSGVSDRFSGSKSGTSASLAISGLQSEDEADYYCAAWDDSLKGYVFGTGTKVTV
15 | 1.7e-10 M | D2GA4 (antibody, V domains shown) VH: EVQLVESGGGVVQPGRSLRLSCAASGFIFHHYAMHWVRQAPGKGLEWVAHISSDGSSKFYADSVKGRFTVSRDNSKNTLYLQMNSLRAEDTAVYYCARFTEVLYYGADLWGQGTLVTVSS VL: QSVLTQPPSVSEAPRQRVSISCSGSSSNIGDNAVNWYQQLPGKAPKLLIYYDDLHPSGVSDRFSGSKSGTSASLAISGLQSEDEADYYCAAWDDSLKGYVFGTGTKVTVL
16 | 8.6e-10 M | D2 GB8 (antibody, V domains shown) VH: EVQLVESGGGVVQPGRSLRLSCAASGFIFHHYAMHWVRQAPGKGLEWVAHISPDGSYKFYADSVKGRFTVSRDNSKNTLYLQMNSLRAEDTAVYYCARFTEVLYYGADIWGQGTLVTVSS VL: QSVLTQPPSVSEAPRQRVSISCSGSSSNIGNNAVNWYQQLPGKAPKLLIYYDDLLPSGVSNRFSGSKSGTSASLAISGLQSEDEADYYCAAWDDSLKGYVFGTGTKVTVL

target: T1, EGFR expressed on the surface of cells …; experiment: binding of purified IgG to EGFR-expressing cell lines

Row | binding result | Binder
17 | binds | B1 (antibody, IgG1, V domains shown) VH: QVQLVQSGGGVVQPGRSLRLSCAASGFIFNHYAMHWVRQAPGKGLEWVAHISSDGSYKFYADSVKGRFTVSRDNSDNTVYLQMNSLGPEDTAVYHCARFTEVLYYGADYWGQGTLVTVSS VL: not shown
18 | binds | B4 (antibody, IgG1, V domains shown, also called EGFR-B4) VH: QVQLVQSGAEVKKPGSAVKVSCKASGGTFSSYAISWVRQAPGQGLEWMGGIIPILGTADYAQKFQGRVTITADESTSTAYMELSSLRSEDTAVYYCARDEIPLEYCTSTSCYHAFDIWGQGTMVTVSS VL: NIQMTQSPPSLSAFVGDRVTITCQASQAINNYLNWYQQKPGKAPKLLIYDASNLETGVPSRFSGSGSGTDFTFTISSLQPEDNATYYCQQYDKLPLTFGGGTKVEIK
19 | binds | D6 (antibody, IgG1, V domains shown, also called EGFR-D6) VH: EVQLVQSGAEVKKPGSAVKVSCKASGGTFSSYAISWVRQAPGQGLEWMGGIIPILGTADYAQKFQGRVTITADESTSTAYMELSSLRSEDTAVYYCARDEIPLEYCTSTSCYHAFDIWGRGTMVTVSS VL: AIQLTQSPSTLSASVGDRVTITCRASQSISSWLAWYQQKPGKAPKLLIYAASSLQSGVPSRFSGSGSGTDFTLTISSLQPEDFATYYCQQSYSTPLTFGGGTKVEIK
